Results reported in the supplement of paper PMC12042874.
± gives the uncertainty stated by the source.

Test: amyloid nucleation score (Sup35N fusion, yeast selection) (log enrichment); library NNK3; higher = more nucleation; inactive = no reads after selection
Outline: (§1)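 Nucleation score is defined as the DiMSum log enrichment of output over input reads, with centring on the mode score of non-aggregating sequences. A minimum of 100 input reads was required for each sequence. Reads came from Illumina sequencing of plasmid inserts from psi-negative yeast expressing Sup35N fused to peptides of 20 random codons, induced with 100 μM copper sulfate for 24 hours and grown 7 days at 30°C on medium lacking adenine and uracil.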

Row | Substance | amyloid nucleation score
1 | YTFLSVAFLD | inactive
2 | YTFRCIYRADYNTP | inactive
3 | YTFRMYGLMDNLHCAPWF | inactive
4 | YTLAFECLPSLTMQVRNWMM | inactive
5 | YTLKCIQVVWLSMPVSVSNV | inactive
6 | YTMLSVCGVYICYKVYSMCW | 0.527 ± 0.4
7 | YTQFYSMILDRRFCFNSVEL | inactive
8 | YTRCNISNMV | inactive
9 | YTVMFLGANYSYVVKSMSRS | inactive
10 | YVCGLRRKSLVGKLYSIGLS | inactive
11 | YVDMP | 0.089 ± 0.87
12 | YVFGNWLLCFEHTKMH | 1.1 ± 0.14
13 | YVFVCIRPPLVGVHEFNSRS | -0.089 ± 0.56
14 | YVHWLGSALREGDWVLPSAL | inactive
15 | YVIGDVIIFPSSFMINCLYC | 2.4 ± 0.081
16 | YVILGQDDHEKT | inactive
17 | YVSSRNRHYGSPYLGVCVFK | inactive
18 | YVTGVLDC | inactive
19 | YVTHMQLGYLSVMCMEVKRG | 1.35 ± 0.085
20 | YVVRN | inactive
21 | YVVVLMSLHWRNWGALRRTC | inactive
22 | YVYWREFGACMGSQQWVVRV | inactive

Row | Substance | amyloid nucleation score
23 | YWDVNQGVYGINYGTVSHS | 0.256 ± 0.43
24 | YWFIAQAYKGRCVGSTVDKR | inactive
25 | YWFSQFVIFGCSS | inactive
26 | YWGIDHRIAGYIC | inactive
27 | YWLSPDKICTYYLVWVRRAP | inactive
28 | YWQPWVNLDSYRCGHNSQFP | inactive
29 | YWSIFTLVVPMRFAFIWS | inactive
30 | YWSNSYGIECCRLVQQAPTE | -0.132 ± 0.33
31 | YYAATPGSYLAGGRWITLF | 0.219 ± 0.47
32 | YYDHGNFRCMSTKRPVWQVF | inactive
33 | YYFPWLYAKYSVVIINDMEP | 2.64 ± 0.05
34 | YYFRPVSPRDLSQVDCRTDL | inactive
35 | YYFRRVWTCPLIAQIIKSDL | 0.39 ± 0.71
36 | YYFRRWGHS | inactive
37 | YYHLGLLDVSINEIRT | inactive
38 | YYIHCVWYNADKVYEG | 2.37 ± 0.059
39 | YYLCYLSVHLSMIGCKEKGR | inactive
40 | YYMRDCSYIHEFGTGVASDR | inactive
41 | YYTGFTIFLLRVWLLAGVGS | inactive
42 | YYVVVQADVGNI | inactive
43 | YYWDKLFCMYKTAHGVSIYV | inactive
44 | YYWLLIGLLFRVLLMLVQGK | inactive

Test: amyloid nucleation score (Sup35N fusion, yeast selection) (log enrichment); library NNK2; higher = more nucleation; inactive = no reads after selection
Outline: as §1

Row | Substance | amyloid nucleation score
45 | AAELLLSSGLVRQHAARRQY | 0.695 ± 0.26
46 | AANWGNRGYMVCEHCVIDV | -0.054 ± 0.46
47 | ACCSCIIVFINFTSLFFYRF | -0.178 ± 1.1
48 | ACGPQPETLSGLMSRGLLRR | 0.619 ± 0.64
49 | ACNVILCVTNPTHNVIV | 9.254 ± 0.036
50 | ADGVSSWLTVLTFSHWRVK | 1 ± 0.31
51 | ADIAWSCRLESNCFPTLSMM | 0.255 ± 0.33
52 | ADLCHTGRGSMRPCETED | inactive
53 | ADNVGS | 3.71 ± 0.058
54 | AERLRVISGWAAWYAIDTRF | 3.82 ± 0.11
55 | AEWISLQQFLSLQKEFWIKA | -0.596 ± 0.76
56 | AEYSSAKGFD | -0.794 ± 0.55
57 | AFCTVSSCFMSSSLPI | 5.3 ± 0.06
58 | AFCWTLWQYLGFS | 1.35 ± 0.16
59 | AFDGGIFFSLMSFMLVWMGS | -0.345 ± 0.56
60 | AFDTTPKC | 0.275 ± 0.32
61 | AFFKR | 0.182 ± 0.38
62 | AFHWMF | 0.544 ± 0.28
63 | AFNARWTEIDVPWRASPAHV | 0.657 ± 0.37
64 | AFNERAYYVGGLTADME | 0.753 ± 0.43

Row | Substance | amyloid nucleation score
65 | AFNWIEVCEETSPGSTTEGS | 0.318 ± 0.39
66 | AFPKLRAGSSLLCA | 0.74 ± 0.29
67 | AFRMLITGPGNS | -1.07 ± 0.49
68 | AFRSSSPSRVHELRQMKELV | 1.14 ± 0.3
69 | AFYGL | inactive
70 | AGDLKRLSSQQLM | 4.03 ± 0.051
71 | AGLLYVSRLNWSVSQRNGVG | 0.131 ± 1
72 | AGPSCL | 0.537 ± 0.22
73 | AGRLYNISNY | inactive
74 | AGWNLFLEGVYVW | -0.387 ± 1.1
75 | AGWNNSMGLDE | inactive
76 | AHNDVNGVFLMPVRSLDFKH | -1.17 ± 0.64
77 | AHYIASVDWIFKM | -1.32 ± 0.41
78 | AIAAHFGLMPMCYLCTG | 7.25 ± 0.079
79 | AIFDTIYC | -0.541 ± 1.1
80 | AILFSIFISVGRKWLFSASH | -1.78 ± 1.1
81 | AINWYYMHISMLECPAKNGS | -0.876 ± 0.76
82 | AIRCMEVKRTKSLLLVDSLS | 0.154 ± 0.23
83 | AIRLLDVLRCRG | 3.88 ± 0.087
